Experiment [1] addresses T1, recombinant human TIGIT (Human TIGIT His, Sino Biological, 10917-H08H) (human, UniProt Q495A1 22-138).
T1 construct: range 1-138; bought; also called hTIGIT
T1 sequence (looked up): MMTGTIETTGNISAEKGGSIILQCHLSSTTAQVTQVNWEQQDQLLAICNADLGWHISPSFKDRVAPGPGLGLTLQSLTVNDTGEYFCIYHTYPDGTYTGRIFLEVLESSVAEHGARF
In words: BLI, antibody captured on anti-human Fc probe, TIGIT-His in solution. For orientation: Biolayer interferometry detects binding as a change in optical thickness at a sensor tip.

In experiment [2] the target is T2, full-length human TIGIT expressed on CHO-K cell membrane (CHO-K-TIGIT) (human, UniProt Q495A1 22-244).
T2 construct: whole, on cells; also called CHO-TIGIT; membrane TIGIT
T2 sequence (looked up): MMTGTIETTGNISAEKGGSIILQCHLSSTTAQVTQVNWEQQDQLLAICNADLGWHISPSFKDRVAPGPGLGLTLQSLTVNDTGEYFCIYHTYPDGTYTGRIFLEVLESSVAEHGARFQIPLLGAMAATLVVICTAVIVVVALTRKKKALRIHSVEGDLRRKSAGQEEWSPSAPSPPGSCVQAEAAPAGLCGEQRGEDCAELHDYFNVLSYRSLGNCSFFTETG
In words: flow cytometry, CHO-TIGIT cells.

The target in experiment [3] is T1, recombinant human TIGIT (Human TIGIT …). Description: competition ELISA on recombinant human TIGIT, CD155 as competitor. For orientation: An ELISA detects its analyte on a solid surface through an enzyme-linked reagent.
Experiment [4] has the same target. Description: BLI, antibody captured on anti-human Fc probe, TIGIT-His in solution. This is another data set of the same source.
The target is the same in experiment [5]. In words: ELISA, coated human TIGIT-His.

Where two headings read alike, the source gives them in different places.

B1: humanized anti-human TIGIT monoclonal antibody P03488 (antibody, V domains shown)
VH: QVQLVQSGAEVKKPGASVKVSCKASGYTFISYNIYWVRQAPGQGLEWIGGVNPSNGNTNFNENFKGRVTLTVDTSISTAYMELSRLRSDDTAVYYCTRGNYYGYEFAYWGQGTTVTVSS
VL: DIQMTQSPSSMSASVGDRVTITCKASQHVSTAVAWYQQKPGKAPKLLIYSPSYRYTGVPSRFSGSGSGTDFTFTISSVQPEDIATYYCQQHYSTPWTFGGGTKLEIK
As for B1, in experiment [1], the Kd – broadly, the concentration at which binding is half-saturated – worked out at 1.02 nM; the koff (in general, a measure of how fast the partners let go of each other) came to 0.000519 s⁻¹; the kon – broadly, the second-order rate constant of association – was found to be 511000 M⁻¹ s⁻¹.

B2: humanized anti-human TIGIT monoclonal antibody P03489 (antibody, V domains shown)
VH: QVQLVQSGAEVKKPGASVKVSCKASGYTFISYNIYWVRQAPGQGLEWMGGVNPSNGNTNFNENFQGRVTMTVDTSISTAYMELSRLRSDDTAVYYCTRGNYYGYEFAYWGQGTTVTVSS
VL: DIQMTQSPSSMSASVGDRVTITCKASQHVSTAVAWYQQKPGKAPKLLIYSPSYRYTGVPSRFSGSGSGTDFTFTISSVQPEDIATYYCQQHYSTPWTFGGGTKLEIK
Turning to B2, the EC50 (usually the midpoint of the concentration-response curve) in experiment [2] is 0.761 nM. Also, in experiment [1], the Kd turned out to be 1.19 nM, the koff is 0.000584 s⁻¹ and the kon was determined as 489000 M⁻¹ s⁻¹.

B3: humanized anti-human TIGIT monoclonal antibody P03477 (antibody, V domains shown)
VH: EVQVVESGGGLVKPGGSLRLSCAASGFTFSTYAMSWVRQAPGKGLEWVAEISSGGSHTFYSDTVTGRFTISRDNAKNTLYLQMNSLRAEDTAVYYCARKTLDYYALDYWGQGTTVTVSS
VL: DVQITQSPSSVSASVGDRVTINCRASKSISKYLAWYQQKPGKAPKLLIYSGSRLQSGVPSRFSGSGSGTDFTLTISSLQPEDFATYYCQQHNEYPWTFGGGTKLEIK
Turning to B3, the IC50 (commonly the point on the concentration scale where inhibition reaches its midpoint) in experiment [3] was 0.928 nM. Moreover, in experiment [4], the Kd is 5.95 nM, the koff turned out to be 0.00291 s⁻¹ and the kon was found to be 490000 M⁻¹ s⁻¹. The EC50 in experiment [5] was found to be 0.194 nM. The molecule also gave an EC50 in experiment [2] of 1.74 nM.

B4: humanized anti-human TIGIT monoclonal antibody P03484 (antibody, V domains shown)
VH: EVQLVESGGGLVKPGGSLRLSCAASGFTFSTYAMSWVRQAPGKGLEWVAEISSGGSHTFYADTVTGRFTISRDNAKNTLYLQMNSLRAEDTAVYYCARKTLDYYALDYWGQGTTVTVSS
VL: DIQMTQSPSSVSASVGDRVTITCRASKSISKYLAWYQQKPGKAPKLLIYSGSRLQSGVPSRFSGSGSGTDFTLTISSLQPEDFATYYCQQHNEYPWTFGGGTKLEIK
In the case of B4, the IC50 in experiment [3] came to 1.29 nM. Also, in experiment [4], the Kd stood at 9.15 nM, the koff came out at 0.00639 s⁻¹ and the kon came out at 699000 M⁻¹ s⁻¹. The EC50 in experiment [5] is 0.187 nM.

B5: humanized anti-human TIGIT monoclonal antibody P03476 (antibody, V domains shown)
VH: EVQVVESGGGLVKPGGSLRLSCAASGFTFSTYAMSWVRQAPGKGLEWVAEISSGGSHTFYSDTVTGRFTISRDNAKNTLYLQMNSLRAEDTAVYYCARKTLDYYALDYWGQGTTVTVSS
VL: DVQITQSPSYLSASVGDRVTINCRASKSISKYLAWYQQKPGKAPKLLIYSGSRLQSGIPSRFSGSGYGTDFTLTISSLQPEDFATYYCQQHNEYPWTFGGGTKLEIK
For the molecule B5, the IC50 in experiment [3] stood at 1.32 nM. In addition, in experiment [4], the dissociation constant Kd is 7.92 nM, the koff was 0.00483 s⁻¹ and the kon was 610000 M⁻¹ s⁻¹. The EC50 in experiment [5] is 0.221 nM. In experiment [2], this molecule showed an EC50 of 1.52 nM.

B6: humanized anti-human TIGIT monoclonal antibody P04664 (antibody, V domains shown)
VH: EVQVVESGGGLVKPGGSLRLSCAASGFTFSTYAMSWVRQAPEQRLEWVAEISSGGSHTFYSDTVTGRFTISRDNAKNTLYLQMNSLRAEDTAVYYCARKTLDYYALDYWGQGTTVTVSS
VL: DVQITQSPSSVSASVGETITINCRASKSISKYLAWYQQKPGKAPKLLIYSGSRLQSGVPSRFSGSGSGTDFTLTISSLQPEDFATYYCQQHNEYPWTFGGGTKLEIK
Take B6: in experiment [4], the Kd is 2.73 nM, the koff was determined as 0.00391 s⁻¹ and the kon turned out to be 1.43e+06 M⁻¹ s⁻¹.

Values taken from patent US20240417462A1 (SHANGHAI CELGEN BIO PHARMACEUTICAL, published 2024).
